{"source": "patent US20090111098A1", "about": "(SHIONOGI, published 2009)", "binders": {"B1": {"name": "6G4 antibody (monoclonal antibody produced by hybridoma TAG-6G4) (antibody, IgG1, V domains shown)", "VH": "EVQLVESGGSLVQPGGSLKLSCAASGFTFNNYGMSWVRQIPDKRLELVATITGNGHSTYYPVSVRGRFTISRDNAKNTLYLQMSSLKSEDTAMYYCVRGYSNFAFWGQGTTLTVSS", "VL": "not shown", "notes": "Mouse monoclonal IgG1 (k), 150 kDa; also called cryptate-labeled 6G4 antibody; FERM ABP-10483"}, "B2": {"name": "2E6 antibody (monoclonal antibody produced by hybridoma TAG-2E6) (antibody, V domains shown)", "VH": "QVTLKESGPGILQPSQTLSLTCSFSGFSLSTYGMGVGWIRQPSGKGLEWLAHIWWNDNKYYNTTLKSRLTISKDTSNKQVFLKIASVDTADTATYYCARIERWDPWFAYWGQGTLVTVSA", "VL": "DVVMTQTPLSLPVSLGDQASISCRSSQSLVYSNGNTYFHWYLQKPGQSPKLLIYKVSNRFSGVPDRFSGSGSGTDFTLKISRVEAEDLGVYFCSQSTHVPLTFGAGTKLELKR", "notes": "Mouse monoclonal IgG2b (k), 150 kDa; also called XL665-labeled 2E6 antibody; FERM ABP-10482"}}, "key": {"[1]": {"target": "T1, peptide GEPGDDAPS (region corresponding to amino acids 757 to 765 of human type 2 collagen) (human)", "T1 construct": "The immunogen carried an added C-terminal cysteine and was conjugated to KLH", "T1 peptide": "GEPGDDAPS", "test": "property stated for the prepared monoclonal antibody"}, "[2]": {"target": "T2, peptide GPPGPQG (region corresponding to amino acids 769 to 775 of human type 2 collagen) (human)", "T2 construct": "The immunogen carried an added N-terminal cysteine and was conjugated to BSA; The DELFIA screen was run as for 6G4", "T2 peptide": "GPPGPQG", "test": "property stated for the prepared monoclonal antibody"}}, "data": [{"binder": "B1", "values": [{"measurement": "binding result", "setting": "[1]", "value": "binds"}]}, {"binder": "B2", "values": [{"measurement": "binding result", "setting": "[2]", "value": "binds"}]}]}
